From patent US11524046B2, “Biofilm prevention, disruption and treatment with bacteriophage lysin” (priority 2012, dated 2022)
Like-named read-outs stand apart in the source and are kept apart here.

Experiments:
Pseudomonas aeruginosa = Pseudomonas aeruginosa (5)
Lactococcus spp. = conditions: N 3
S. aureus strains = assay: PlySs2 and antibiotic MIC, broth microdilution, 80% growth inhibition (CLSI M07-A9); type: cell-based
[1] = test system: MRSA biofilms grown on catheters (strain ATCC BAA-42); assay: Catheter biofilm eradication in vitro, methylene blue staining
Streptococcus pneumoniae = assay: MIC of PlySs2, susceptible and non-susceptible bacterial strains; type: cell-based; conditions: Streptococcus pneumoniae (26)
[2] = test system: MRSA strains CFS 553 (ATCC 43300) and CFS 992 (JMI 5381) biofilms; assay: Catheter biofilm titration of additional MRSA strains, methylene blue staining; type: cell-based, S. aureus; conditions: 4 hours
[3] = test system: Staphylococcus lugdiensis; assay: MIC of PlySs2, susceptible and non-susceptible bacterial strains; type: cell-based; conditions: Staphylococcus lugdiensis (10)
Staphylcoccus aureus = assay: as above; type: cell-based
[4] = test system: S. epidermidis (strain CFS 313 NRS34) biofilm; assay: S. epidermidis catheter biofilm titration, methylene blue staining; type: cell-based; conditions: MIC 8 ug/ml
Description: S. epidermidis biofilms in catheters were treated with PlySs2 and evaluated using methods similarly as described above for the S. aureus studies.
The results of S. epidermidis (strain CFS 313 NRS34, which is a vancomycin intermediate sensitive S. epidermidis (VISE) strain) biofilm studies on catheters treated with PlySs2 at 10×MIC and below are shown in FIG. 17. S. epidermidis biofilm is destroyed at PlySs2 concentrations down to 0.1×MIC. The MIC here is 8 ug/ml.

[5] = test system: Antibiotic-Resistant Staphylococcus aureus; assay: MIC of PlySs2 against antibiotic-resistant S. aureus; type: cell-based; parameters: unit not given here
[6] = test system: MRSA strains CFS 553 (ATCC 43300) and CFS 992 (JMI 5381); assay: MIC of PlySs2 against additional MRSA strains; type: cell-based, S. aureus
[7] = test system: MRSA biofilms grown on catheters (strain ATCC BAA-42); assay: Catheter biofilm residual CFU, BacTiter-Glo luciferase estimate
[8] = test system: biofilms of MRSA strain CFS 218 (MRSA strain ATCC BAA-42); assay: Scanning electron microscopy of treated catheter biofilms; type: cell-based, S. aureus; conditions: 1×MIC (32 ug/ml)
Source text: Biofilms were generated on catheter tubing (PVC with DEHP as plasticizer) as above and evaluated for PlySs2 sensitivity by scanning electron microscopy (SEM). […] After fixation on the catheter surface, samples were further processed and analyzed by scanning electron microscopy at 5000× magnification (FIGS. 21A-21C). Treatment with buffer alone (ie, Lactated Ringer's Solution alone) is included as a control.

Lactobacillus spp. = conditions: N 6
[9] = test system: S. aureus MRSA strain BAA-42; assay: Biofilm prevention assay, 24 well plate, crystal violet; type: cell-based; conditions: added with bacteria, 6 hours
[10] = test system: Staphylococcus epidermidis strains; type: cell-based
Escherichia coli = Escherichia coli (6)
Acinetobacter baumannii = Acinetobacter baumannii (8)
Streptococcus mutans = assay: MIC of PlySs2, susceptible and non-susceptible bacterial strains; type: cell-based; conditions: Streptococcus mutans (12)
[11] = test system: Streptococcus agalactiae, Group B; assay: as above; type: cell-based; conditions: Group B (51)
staphylococci = assay: PlySs2 stability at 37° C. in Lactated Ringer's solution, residual lytic activity; type: physicochemical; conditions: 1X MIC
Description: To determine the stability of PlySs2 in a simulated catheter setting, PlySs2 was incubated at various concentrations in Lactated Ringer's solution at 37° C. After 7 days, the lytic activity of PlySs2 was assessed by adding 1×10^5 staphylococci, incubating for 4 hours, then treating with proteinase K to remove residual PlySs2, and serial dilution and plating for viability. The resulting CFU value for each condition was divided by 1×10^5 to determine the % Loss of Activity.

B1: PlySs2: bacteriophage lysin derived from Streptococcus suis, amino acid sequence of FIG. 5 / SEQ ID NO: 1; CHAP and SH3 domains (protein, listed as Streptococcus suis)
chain: MTTVNEALNNVRAQVGSGVSVGNGECYALASWYERMISPDATVGLGAGVGWVSGAIGDTISAKNIGSSYNWQANGWTVSTSGPFKAGQIVTLGATPGNPYGHVVIVEAVDGDRLTILEQNYGGKRYPVRNYYSAASYRQQVVHYITPPGTVAQSAPNLAGSRSYRETGTMTVTVDALNVRRAPNTSGEIVAVYKRGESFDYDTVIIDVNGYVWVSYIGGSGKRNYVATGATKDGKRFGNAWGTFK
MIC 50% (Pseudomonas aeruginosa): >512 µg/mL
MIC 90% (Pseudomonas aeruginosa): >512 µg/mL
MIC Range (Pseudomonas aeruginosa): >512 µg/mL
CF-301 MIC (Lactococcus spp.): >512 µg/mL
MIC90 (S. aureus strains; DRSA (n = 8)): 0.15 µM
MIC90 (S. aureus strains; LRSA (n = 5)): 0.08 µM
MIC90 (S. aureus strains; MRSA (n = 45)): 0.15 µM
MIC90 (S. aureus strains; MSSA (n-28)): 0.15 µM
MIC90 (S. aureus strains; VISA (n = 10)): 1.2 µM
MIC90 (S. aureus strains; VRSA (n = 14)): 0.08 µM
time of full removal of stainable biofilm ([1]; 1×MIC (32 ug/mL)): ≤ 60 min
biofilm clearance from the catheter ([1]; 1×MIC, 24 hours): completely cleared
MIC 50% (Streptococcus pneumoniae): 16 µg/mL
MIC 90% (Streptococcus pneumoniae): 64 µg/mL
MIC Range (Streptococcus pneumoniae): 1 to 64 µg/mL
catheter biofilm eradication ([2]; CFS 553 (ATCC 43300), 0.01×MIC): significantly reduced
catheter biofilm eradication ([2]; CFS 553 (ATCC 43300), 10×MIC, 1×MIC, and 0.1×MIC): eradicated and fully dispersed
catheter biofilm eradication ([2]; CFS 992 (JMI 5381), 0.01×MIC): significantly reduced
catheter biofilm eradication ([2]; CFS 992 (JMI 5381), 10×MIC, 1×MIC, and 0.1×MIC): eradicated and fully dispersed
MIC 50% [3]: 8 µg/mL
MIC 90% [3]: 8 µg/mL
MIC Range [3]: 8 µg/mL
MIC 50% (Staphylcoccus aureus; Methicillin resistant (120)): 4 µg/mL
MIC 90% (Staphylcoccus aureus; Methicillin resistant (120)): 8 µg/mL
MIC Range (Staphylcoccus aureus; Methicillin resistant (120)): 1 to 16 µg/mL
MIC 50% (Staphylcoccus aureus; Methicillin susceptible (103)): 4 µg/mL
MIC 90% (Staphylcoccus aureus; Methicillin susceptible (103)): 8 µg/mL
MIC Range (Staphylcoccus aureus; Methicillin susceptible (103)): 1 to 16 µg/mL
lowest concentration at which biofilm is destroyed [4]: 0.1 ×MIC
MIC 50% ([5]; Daptomycin-resistant (8)): 2
MIC 90% ([5]; Daptomycin-resistant (8)): 4
MIC Range ([5]; Daptomycin-resistant (8)): 2-4
MIC 50% ([5]; Linezolid-resistant (5)): 2
MIC 90% ([5]; Linezolid-resistant (5)): 2
MIC Range ([5]; Linezolid-resistant (5)): 2-4
MIC 50% ([5]; Vancomycin-intermediate (31)): 8
MIC 90% ([5]; Vancomycin-intermediate (31)): 32
MIC Range ([5]; Vancomycin-intermediate (31)): 1-64
MIC 50% ([5]; Vancomycin-resistant (14)): 2
MIC 90% ([5]; Vancomycin-resistant (14)): 4
MIC Range ([5]; Vancomycin-resistant (14)): 1-4
1×MIC ([6]; strain ATCC 4330): 16 µg/mL
1×MIC ([6]; strain JMI 5381): 32 µg/mL
CFUs remaining in catheter biofilm ([7]; 1×MIC, 24 hours, 100 CFU/ml is the limit of detection): 100 CFU/ml
lowest concentration active at removing biofilm bacteria ([7]; titration, CFU): 0.01 ×MIC
biofilm on catheter surface by SEM ([8]; 30 seconds): rapidly diminishes
biofilm on catheter surface by SEM ([8]; 15 minutes): almost completely removes
CF-301 MIC (Lactobacillus spp.): >512 µg/mL
prevention of biofilm formation ([9]; 0.1×MIC): effectively and completely prevent
prevention of biofilm formation ([9]; 1×MIC (32 ug/ml)): effectively and completely prevent
MIC ([10]; CFS 224, HER 1292): 512 µg/mL
MIC ([10]; CFS 225, HPH-6): 128 µg/mL
MIC ([10]; CFS 226, HPH-5): 512 µg/mL
MIC ([10]; CFS 227, HCN-4): >512 µg/mL
MIC ([10]; CFS 272, NRS53 (VISE)): 128 µg/mL
MIC ([10]; CFS 280, NRS101 (MRSE)): 128 µg/mL
MIC ([10]; CFS 300, NRS8, (VISE)): 32 µg/mL
MIC ([10]; CFS 313, NRS34 (VISE)): 8 µg/mL
MIC ([10]; CFS 533, NRS6, (VISE), bloodstream USA): >512 µg/mL
MIC ([10]; CFS 769, NRS101): 64 µg/mL
MIC 50% (Escherichia coli): >512 µg/mL
MIC 90% (Escherichia coli): >512 µg/mL
MIC Range (Escherichia coli): >512 µg/mL
MIC 50% (Acinetobacter baumannii): >512 µg/mL
MIC 90% (Acinetobacter baumannii): >512 µg/mL
MIC Range (Acinetobacter baumannii): >512 µg/mL
MIC 50% (Streptococcus mutans): 64 µg/mL
MIC 90% (Streptococcus mutans): 256 µg/mL
MIC Range (Streptococcus mutans): 2 to 256 µg/mL
MIC 50% [11]: 8 µg/mL
MIC 90% [11]: 16 µg/mL
MIC Range [11]: 1 to 64 µg/mL
% LOSS OF ACTIVITY (7 days) (staphylococci): 58.3%
